Laboratory results published in patent publication US20220089784A1 (University of California, published 2022).
Changes are numbered by the printed parent chain. Where two headings read alike, the source gives them in different places.

B1: 6A1M IgG (antibody, V domains shown)
VH: LQLKQSGPGLVKPSQSLSLTCSVTGYSITSGYYWYWIRQFPGNKLEWMGYISYDGSNNYNPSLKNRISITRDTSKNQFFLKLNSVTTEDTATYYCARNLGLWYFDVWGTGTPLTVSS
VL: EIVLTQSPAILSASPGEKVTMTCRASSSVRYMHWYQQKPGSSPKPWIYATSNLASGVPARFSGSGSGTSYSLTISRVEAEDAATYYCQQWSGNAPTFGGGTKLEIK
notes: IgG converted from scFv
B2: ING2 IgG (antibody, V domains shown)
VH: QVQLVQSGAEVKKPGSSVKVSCKASGDTFNRNAIAWVRQAPGQGLEWMGRIIPNLRTTHYAQKFQGRVAITADKHTNTVFMELSSLRSEDTAVYYCARDPYYYSYMDVWGKGTTVTVSS
VL: not shown
B3: 28H2 scFv (scFv, V domains shown)
VH: QVQLQESGPGLVKPSQTVSLTCTVAGYSITNGNHWWNWIRQVSGSKLEWIGYITSSGSTDSNPSLKSRISITRDTSKNQLFLQLNSVTTEDIATYYCARSSNYFFHVLDYWGQGTSVTVSS
VL: DIVLTQTPAIMSASPGEKVTMTCSASSSVSYMHWFQQKPGTSPKLWIYSTSNLASGVPARFSGSGSGTSYSLTISRMEAEDAATYYCQQRSSYPPTFGGGTRLEIK
B4: A9 (antibody, V domains shown)
VH: QVQLVQSGGGVVQPGRSLRLSCAASGFTFSSYGMHWVRQAPGKGLEWVSSISSSSSYIYYADSVKGRFTISRDNSKNTLYLQMNSLRAEDTAVYYCARGAVAGGSYGMDVWGQGTMVTVSS
VL: not shown
B5: 4E17.2 scFv (scFv, V domains shown)
VH: EVQLVQSGGNLVQPGGSLRLSCAATGPIGSHWMTWVRQAPGQGLEWVANINLDGTEKFYVDSVKGRFTVSRDNRKSSVFLQMNNLRVDDTAVYYCARLQWGGYNGWLSPWGQGTLVTVSS
VL: DIEMTQSPPSLSASVGDRVSLTCRASEYIGTSLNWYQQKPGKAPKLLIYAASALHSGVPSRFSGSGSGTDFTLTISGLQPEDFATYYCQQANDLPLTFGGGTKLEIK
B6: 4E17.1 (antibody, V domains shown)
VH: B5 VH with Q6R
VL: DIVMTQSPSSLSASVGDRVTISCRASQSIRHYVNWYQQKPGKAPKLLIYKASSLASGAPSRFSGSGSGTDFTLTISSLQPDDFATYYCQQSYSIPLTFGGGTKVEIKR

What was measured:
[1] = molecular target: BoNT/A light chain (recombinant) (Clostridium botulinum, UniProt P0DPI0 1-448); assay: KinExA, IgG
[2] = molecular target: T1, BoNT/A1 holotoxin (Hall hyper) (Clostridium botulinum, UniProt P0DPI0 2-1296); assay: KinExA, IgG
[3] = molecular target: T2, BoNT/A2 holotoxin (FRI-H1A2) (Clostridium botulinum, UniProt Q45894 2-1296); assay: KinExA, IgG
[4] = molecular target: T3, BoNT/F1 (proteolytic BoNT/F) (Clostridium botulinum, UniProt A7GBG3 1-1278); assay: yeast scFv FACS
T3 sequence: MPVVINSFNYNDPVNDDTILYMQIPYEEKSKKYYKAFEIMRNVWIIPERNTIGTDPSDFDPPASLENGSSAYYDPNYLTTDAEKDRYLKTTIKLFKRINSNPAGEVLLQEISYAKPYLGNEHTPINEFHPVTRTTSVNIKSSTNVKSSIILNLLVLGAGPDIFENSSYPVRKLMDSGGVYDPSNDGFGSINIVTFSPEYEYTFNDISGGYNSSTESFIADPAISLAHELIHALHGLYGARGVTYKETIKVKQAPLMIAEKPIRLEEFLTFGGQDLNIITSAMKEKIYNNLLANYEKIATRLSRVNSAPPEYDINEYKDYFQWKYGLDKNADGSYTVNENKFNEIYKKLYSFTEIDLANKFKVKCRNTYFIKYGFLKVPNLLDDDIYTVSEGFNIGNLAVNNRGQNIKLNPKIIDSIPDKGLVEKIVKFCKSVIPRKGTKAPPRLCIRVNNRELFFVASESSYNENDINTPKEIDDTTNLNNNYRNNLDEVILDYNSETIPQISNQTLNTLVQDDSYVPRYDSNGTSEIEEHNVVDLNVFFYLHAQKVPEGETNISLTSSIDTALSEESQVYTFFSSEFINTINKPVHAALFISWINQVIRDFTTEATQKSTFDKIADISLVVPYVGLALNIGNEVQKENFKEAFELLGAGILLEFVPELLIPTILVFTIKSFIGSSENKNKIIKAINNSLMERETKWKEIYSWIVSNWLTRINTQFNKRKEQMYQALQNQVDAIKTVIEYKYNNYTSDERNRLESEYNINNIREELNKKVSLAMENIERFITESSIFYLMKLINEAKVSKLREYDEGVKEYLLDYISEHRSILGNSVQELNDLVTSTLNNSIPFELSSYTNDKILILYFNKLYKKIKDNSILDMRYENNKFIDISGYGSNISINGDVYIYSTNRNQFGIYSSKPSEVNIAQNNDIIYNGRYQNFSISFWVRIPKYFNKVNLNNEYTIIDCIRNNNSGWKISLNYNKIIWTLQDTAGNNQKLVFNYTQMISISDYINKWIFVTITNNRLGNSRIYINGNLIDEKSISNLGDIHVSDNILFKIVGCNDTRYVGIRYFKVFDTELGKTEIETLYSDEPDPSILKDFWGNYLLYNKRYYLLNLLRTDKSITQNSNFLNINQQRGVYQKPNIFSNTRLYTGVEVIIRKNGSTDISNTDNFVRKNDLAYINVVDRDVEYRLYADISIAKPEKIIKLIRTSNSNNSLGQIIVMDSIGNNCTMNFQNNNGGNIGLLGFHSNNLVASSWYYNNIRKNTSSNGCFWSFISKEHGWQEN

BoNT/F 202F = molecular target: T4, BoNT/F 202F (Clostridium botulinum, UniProt P30996 1-1274); assay: yeast scFv FACS
T4 sequence: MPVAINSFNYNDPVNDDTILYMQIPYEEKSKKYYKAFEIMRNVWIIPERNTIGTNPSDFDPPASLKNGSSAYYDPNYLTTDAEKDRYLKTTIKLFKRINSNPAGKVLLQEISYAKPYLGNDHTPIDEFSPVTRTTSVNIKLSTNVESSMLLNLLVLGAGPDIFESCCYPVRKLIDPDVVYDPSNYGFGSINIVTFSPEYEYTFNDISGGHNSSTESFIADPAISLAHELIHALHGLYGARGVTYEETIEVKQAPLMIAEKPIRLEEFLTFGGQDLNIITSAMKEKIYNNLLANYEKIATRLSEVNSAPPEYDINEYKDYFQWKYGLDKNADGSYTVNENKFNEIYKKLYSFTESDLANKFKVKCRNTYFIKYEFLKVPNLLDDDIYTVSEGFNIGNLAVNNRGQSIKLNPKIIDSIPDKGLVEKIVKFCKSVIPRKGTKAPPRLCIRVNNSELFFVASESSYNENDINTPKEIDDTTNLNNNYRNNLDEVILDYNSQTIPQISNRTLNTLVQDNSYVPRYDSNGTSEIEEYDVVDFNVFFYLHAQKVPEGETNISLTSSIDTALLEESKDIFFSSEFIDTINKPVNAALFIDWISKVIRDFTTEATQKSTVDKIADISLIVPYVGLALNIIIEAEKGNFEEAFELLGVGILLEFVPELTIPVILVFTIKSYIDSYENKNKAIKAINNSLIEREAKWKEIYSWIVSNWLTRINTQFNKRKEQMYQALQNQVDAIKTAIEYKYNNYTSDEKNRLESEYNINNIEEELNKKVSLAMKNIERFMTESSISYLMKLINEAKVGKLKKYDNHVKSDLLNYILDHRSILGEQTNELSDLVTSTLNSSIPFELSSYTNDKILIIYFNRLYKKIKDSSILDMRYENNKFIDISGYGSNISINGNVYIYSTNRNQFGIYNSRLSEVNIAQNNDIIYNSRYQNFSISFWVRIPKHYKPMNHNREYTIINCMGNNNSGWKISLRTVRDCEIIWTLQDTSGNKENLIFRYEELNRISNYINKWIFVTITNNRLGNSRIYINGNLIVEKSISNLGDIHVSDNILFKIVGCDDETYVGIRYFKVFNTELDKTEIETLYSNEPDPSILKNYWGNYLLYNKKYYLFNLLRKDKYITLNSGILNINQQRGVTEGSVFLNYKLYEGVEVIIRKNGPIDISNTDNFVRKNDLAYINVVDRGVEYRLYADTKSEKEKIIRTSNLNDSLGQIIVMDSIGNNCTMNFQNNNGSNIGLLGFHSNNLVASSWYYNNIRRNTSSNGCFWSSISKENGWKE

[5] = molecular target: T3, BoNT/F1 (proteolytic BoNT/F); assay: yeast scFv FACS; remark: listed apart in the source
BoNT/F6 = molecular target: T5, BoNT/F6 (Clostridium botulinum, UniProt P30996 1-1274); assay: yeast scFv FACS
T5 sequence: T4 sequence

[6] = molecular target: T1, BoNT/A1 holotoxin (Hall hyper)
[7] = molecular target: T2, BoNT/A2 holotoxin (FRI-H1A2)
[8] = molecular target: T3, BoNT/F1 (proteolytic BoNT/F)

Binder	Kd [1] [pM]	Kd [2] [pM]	Kd [3] [pM]	Kd [4] [pM]	binding result (BoNT/F 202F)	Kd [5] [pM]	Kd [6] [pM]	Kd [7] [pM]	also measured
B1	1380	9.21	2.89	–	–	–	–	–	–
B2	85700	9.57	7.42	–	–	–	–	–	–
B3	–	–	–	1550	no binding	1550	–	–	binding result (BoNT/F6): no binding (tested: maximum toxin concentration tested)
B4	–	–	–	–	–	–	77.1	223	–
B5	–	–	–	390	binds	390	–	–	Kd [8]: < 1000 pM
B6	–	–	–	–	–	–	1.83	7.98	–
